Results reported in publication PMC3585228, “Consequences of ChemR23 Heteromerization with the Chemokine Receptors CXCR4 and CCR7” (PLoS ONE, 2013).

T1: CCR7-hRLuc / CCR7-EYFP (human, UniProt P32248 25-378)
T1 construct: chemokine receptor CCR7; cDNA in pcDNA3.1, fusion at its 3' end; Two constructs, each with ONE of the two fusions: CCR7-hRLuc (donor) and CCR7-EYFP (acceptor); source: HEK-293T, transfected (calcium phosphate), in living cells; not shown: hRLuc (humanized Renilla luciferase), C-terminal, kept; EYFP, C-terminal, kept
T1 sequence (looked up): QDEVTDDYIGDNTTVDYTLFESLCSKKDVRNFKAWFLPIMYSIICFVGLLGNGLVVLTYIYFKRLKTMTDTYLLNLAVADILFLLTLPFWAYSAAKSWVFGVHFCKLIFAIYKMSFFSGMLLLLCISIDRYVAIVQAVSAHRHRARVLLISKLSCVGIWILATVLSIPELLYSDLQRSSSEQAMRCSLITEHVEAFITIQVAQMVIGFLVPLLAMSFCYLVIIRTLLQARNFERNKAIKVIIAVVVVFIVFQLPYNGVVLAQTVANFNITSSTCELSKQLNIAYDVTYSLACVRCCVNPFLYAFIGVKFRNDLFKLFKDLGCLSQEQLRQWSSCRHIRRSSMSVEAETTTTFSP

T2: CCR7 on CHO-K1 cells (human, UniProt P32248 25-378)
T2 construct: chemokine receptor CCR7; source: CHO-K1, stably expressing, alone or co-expressed with ChemR23 (clone 26); membrane preparations or cells
T2 sequence (looked up): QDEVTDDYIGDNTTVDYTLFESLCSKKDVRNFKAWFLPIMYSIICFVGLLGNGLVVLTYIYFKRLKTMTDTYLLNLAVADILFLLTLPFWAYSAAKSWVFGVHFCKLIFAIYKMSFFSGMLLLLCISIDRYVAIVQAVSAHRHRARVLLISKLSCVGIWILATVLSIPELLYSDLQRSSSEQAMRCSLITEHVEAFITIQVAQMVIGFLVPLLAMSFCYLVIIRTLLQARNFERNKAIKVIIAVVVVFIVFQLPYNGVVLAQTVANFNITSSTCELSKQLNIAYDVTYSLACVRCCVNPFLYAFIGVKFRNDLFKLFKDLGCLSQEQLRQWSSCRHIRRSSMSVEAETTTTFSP

B1: ChemR23-hRLuc / ChemR23-EYFP (receptor, human, UniProt Q99788 1-373, looked up)
chain: MRMEDEDYNTSISYGDEYPDYLDSIVVLEDLSPLEARVTRIFLVVVYSIVCFLGILGNGLVIIIATFKMKKTVNMVWFLNLAVADFLFNVFLPIHITYAAMDYHWVFGTAMCKISNFLLIHNMFTSVFLLTIISSDRCISVLLPVWSQNHRSVRLAYMACMVIWVLAFFLSSPSLVFRDTANLHGKISCFNNFSLSTPGSSSWPTHSQMDPVGYSRHMVVTVTRFLCGFLVPVLIITACYLTIVCKLQRNRLAKTKKPFKIIVTIIITFFLCWCPYHTLNLLELHHTAMPGSVFSLGLPLATALAIANSCMNPILYVFMGQDFKKFKVALFSRLVNALSEDTGHSSYPSHRSFTKMSSMNERTSMNERETGML
notes: ChemR23, the receptor of chemerin; cDNA in pcDNA3.1, fusion at its 3' end; Two constructs, each with ONE of the two fusions: ChemR23-hRLuc (BRET donor) and ChemR23-EYFP (BRET acceptor); source: HEK-293T, transfected (calcium phosphate), in living cells; not shown: hRLuc (humanized Renilla luciferase), C-terminal, kept; EYFP, C-terminal, kept
B2: CCL19 (unlabelled) (ligand, UniProt Q99731 22-98, looked up)
chain: GTNDAEDCCLSVTQKPIPGYIVRNFHYLLIKDGCRVPAVVFTTLRGRQLCAPPDQPWVERIIQRLQRTSAKMKRRSS
notes: chemokine CCL19, the CCR7-specific ligand

Columns and labels:
CXCR4-hRLuc / CXCR4-EYFP = target: T3, CXCR4-hRLuc / CXCR4-EYFP (human, UniProt P61073 1-352); assay: FRET or BRET; BRET titration in HEK293T cells: constant amount of the hRLuc donor construct, increasing amounts of the EYFP acceptor construct; signal recorded 5 minutes after coelenterazine H; conditions: partners not purified
T3 construct: chemokine receptor CXCR4; cDNA in pcDNA3.1, fusion at its 3' end; Two constructs, each with ONE of the two fusions: CXCR4-hRLuc (donor) and CXCR4-EYFP (acceptor); source: HEK-293T, transfected (calcium phosphate), in living cells; not shown: hRLuc (humanized Renilla luciferase), C-terminal, kept; EYFP, C-terminal, kept

CCR7-hRLuc / CCR7-EYFP = target: T1, CCR7-hRLuc / CCR7-EYFP; assay: as above; conditions: partners not purified
CCR7 on CHO-K1 cells [1] = target: T2, CCR7 on CHO-K1 cells; assay: radioligand binding; competition on CHO-K1 cells expressing CCR7 only (methods: membrane preparations); tracer 0.1 nM 125I-CCL19; 50 mM Hepes pH 7.4, 1 mM CaCl2, 5 mM MgCl2, 0.5% BSA; one hour; filtration; conditions: one partner purified
CCR7 on CHO-K1 cells [2] = target: T2, CCR7 on CHO-K1 cells; assay: radioligand binding; competition on CHO-K1 cells co-expressing ChemR23 and CCR7; tracer 0.1 nM 125I-[145-157]-chemerin; competitors chemerin (homologous) or CCL19 (heterologous, cross-competition); same buffer, one hour, filtration; conditions: one partner purified
CCR7 on CHO-K1 cells [3] = target: T2, CCR7 on CHO-K1 cells; assay: radioligand binding; competition on CHO-K1 cells co-expressing ChemR23 and CCR7; tracer 0.1 nM 125I-CCL19; competitors CCL19 (homologous) or chemerin (heterologous, cross-competition); same buffer, one hour, filtration; conditions: one partner purified
CCR7 on CHO-K1 cells [4] = target: T2, CCR7 on CHO-K1 cells; assay: cell-based or functional assay

T3 sequence (P61073 whole entry, the tested form may be a part): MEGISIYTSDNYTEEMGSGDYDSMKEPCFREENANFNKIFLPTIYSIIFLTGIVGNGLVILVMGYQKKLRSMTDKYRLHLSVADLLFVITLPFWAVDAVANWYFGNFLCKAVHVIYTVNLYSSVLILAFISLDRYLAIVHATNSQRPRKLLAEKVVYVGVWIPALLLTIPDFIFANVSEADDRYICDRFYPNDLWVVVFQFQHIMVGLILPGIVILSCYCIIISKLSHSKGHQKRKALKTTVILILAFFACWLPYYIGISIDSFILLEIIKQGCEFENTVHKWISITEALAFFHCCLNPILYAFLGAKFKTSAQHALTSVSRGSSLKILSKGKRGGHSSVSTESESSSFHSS

Binder | BRET50, fold against the CXCR4 homomer (CXCR4-hRLuc / CXCR4-EYFP) | BRET50, fold against the CCR7 homomer (CCR7-hRLuc / CCR7-EYFP) | IC50 (CCR7 on CHO-K1 cells [1]) | IC50 (CCR7 on CHO-K1 cells [2]) | IC50 (CCR7 on CHO-K1 cells [3]) | EC50 of calcium mobilization (aequorin assay), CHO-K1 cells expressing CCR7 only (CCR7 on CHO-K1 cells [4])
B1 | 2 fold | 2 fold | – | – | – | –
B2 | – | – | 2.42 nM | 6.85 nM | 0.27 nM | 7.66 nM
